± gives the standard deviation of the averaged measurements.
System: ATP
Assay: switch fluorescence ratio, 500 uM ATP over buffer (Cy3 cluster intensity, sum of 5 cycles each) (fold (ratio)); higher = stronger signal-on switching upon ATP binding; sequences stand for … in TCGTCGGCAGCGTCAGATGTGTATAAGAGACAGTTTTTTTTTTTTTTTTTTTTTTTTT…TC
Details: aptamer strand: ATP DNA aptamer (quencher-CACCTGGGGGAGTATTGCGGAGGAAGG + anchor), 100 nM annealed; ATP concentration: 500 uM
Summary of the method: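 For every switch-domain sequence, the fluorescence ratio is the mean of per-cluster values, each being summed target-cycle Cy3 intensity over summed buffer-cycle Cy3 intensity. Clusters outside 100-1000 RFU were excluded. On a modified Illumina MiSeq flow-cell, the Cy3-labelled switching-strand clusters were annealed to 100 nM quencher-labelled ATP aptamer, imaged in selection buffer and then after 15 min with 500 uM ATP at 22 °C. Five such cycles were run, with NaOH stripping and re-annealing between them.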
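Note: ATP exposure 15 min at 22 °C before imaging.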

| Sequence | switch fluorescence ratio |
| --- | --- |
| GGCCCACCCA | 1.02 ± 0.072 |
| GGCCCAGAAA | 1.003 ± 0.0097 |
| GGCCCCTATT | 1.023 ± 0.01 |
| GGCCCGGGGC | 0.995 ± 0.017 |
| GGCCCGGGGG | 1.01 ± 0.028 |
| GGCCCGGTGC | 1.08 ± 0.12 |
| GGCCCTACAG | 1.01 ± 0.036 |
| GGCCCTGCAG | 1.02 ± 0.042 |
| GGCCGAATGG | 1.03 ± 0.043 |
| GGCCGAGCTC | 1.012 ± 0.0085 |
| GGCCGCACGC | 3.69 ± 0.059 |
| GGCCGGGGGA | 1.03 ± 0.069 |
| GGCCGGGTTC | 1.01 ± 0.022 |
| GGCCGGTGGA | 1.02 ± 0.038 |
| GGCCGGTTGG | 0.9744 ± 0.0068 |
| GGCCGTAGAA | 0.985 ± 0.032 |
| GGCCGTTCAT | 0.972 ± 0.011 |
| GGCCTAAAGG | 1.005 ± 0.0082 |
| GGCCTCGACC | 1.03 ± 0.0086 |
| GGCCTGCCAT | 0.9813 ± 0.0095 |
| GGCGAAAACT | 1.073 ± 0.0052 |
| GGCGAAGTGC | 1.03 ± 0.013 |
| GGCGAGTGAG | 1.03 ± 0.029 |
| GGCGAGTTT | 1 ± 0.021 |
| GGCGATGGGG | 0.979 ± 0.023 |

| Sequence | switch fluorescence ratio |
| --- | --- |
| GGCGATTGCG | 0.979 ± 0.0041 |
| GGCGATTGGA | 1 ± 0.016 |
| GGCGATTTTG | 0.958 ± 0.03 |
| GGCGCAGCAA | 1.47 ± 0.091 |
| GGCGCATAGG | 1.11 ± 0.02 |
| GGCGCATGTC | 1.14 ± 0.029 |
| GGCGCGATGG | 1.55 ± 0.13 |
| GGCGCTTAGA | 1 ± 0.053 |
| GGCGGAGGGT | 0.986 ± 0.03 |
| GGCGGATTGG | 1.02 ± 0.015 |
| GGCGGCATGG | 1.04 ± 0.023 |
| GGCGGCTGAG | 1 ± 0.067 |
| GGCGGGACGA | 0.973 ± 0.036 |
| GGCGGGAGGG | 0.986 ± 0.029 |
| GGCGGGGAAA | 0.981 ± 0.045 |
| GGCGGGGGAC | 0.987 ± 0.057 |
| GGCGGGGGCA | 0.995 ± 0.024 |
| GGCGGGGGCT | 0.99 ± 0.018 |
| GGCGGGTGAG | 1.03 ± 0.025 |
| GGCGGTAATG | 1.036 ± 0.005 |
| GGCGGTAGTG | 0.999 ± 0.025 |
| GGCGGTATAT | 0.99 ± 0.027 |
| GGCGGTATGT | 0.975 ± 0.028 |
| GGCGTAAATG | 1.02 ± 0.0066 |
| GGCGTAATAT | 1.54 ± 0.085 |

| Sequence | switch fluorescence ratio |
| --- | --- |
| GGCGTAGGCC | 1.2 ± 0.29 |
| GGCGTATATG | 0.973 ± 0.027 |
| GGCGTGATGC | 1.091 ± 0.0076 |
| GGCGTGCGTA | 1.01 ± 0.026 |
| GGCGTTCTTG | 0.962 ± 0.015 |
| GGCGTTGGCT | 0.985 ± 0.011 |
| GGCTAACAAG | 1.01 ± 0.02 |
| GGCTAAGAAT | 1.03 ± 0.058 |
| GGCTAAGGGG | 0.992 ± 0.023 |
| GGCTAAGTTT | 0.97 ± 0.02 |
| GGCTAGAATC | 0.986 ± 0.024 |
| GGCTAGGGGA | 1.13 ± 0.21 |
| GGCTATTGGA | 0.971 ± 0.012 |
| GGCTCAATTT | 0.967 ± 0.012 |
| GGCTGAAGAG | 1.02 ± 0.033 |
| GGCTGAGTTA | 1.021 ± 0.0025 |
| GGCTGGGGTA | 0.9884 ± 0.0032 |
| GGCTGGTTGG | 1.01 ± 0.017 |
| GGCTGTTATT | 0.986 ± 0.039 |
| GGCTGTTTGG | 1 ± 0.012 |
| GGCTTAAGTA | 0.9833 ± 0.0084 |
| GGCTTATGGA | 0.98 ± 0.038 |
| GGCTTCCCGG | 1.16 ± 0.002 |
| GGCTTCTAAG | 0.994 ± 0.026 |
| GGCTTGAACA | 1.01 ± 0.034 |

| Sequence | switch fluorescence ratio |
| --- | --- |
| GGCTTGCGGT | 0.9974 ± 0.004 |
| GGCTTTACGG | 1.012 ± 0.0081 |
| GGCTTTGGAT | 0.977 ± 0.018 |
| GGCTTTGGCG | 1.01 ± 0.015 |
| GGCTTTGGGG | 0.975 ± 0.04 |
| GGCTTTTGGG | 1.03 ± 0.088 |
| GGGAAAAAGG | 0.983 ± 0.029 |
| GGGAAAACCA | 1.01 ± 0.0098 |
| GGGAAAATCA | 0.999 ± 0.02 |
| GGGAAAGAAC | 1.15 ± 0.2 |
| GGGAAAGGCA | 1.015 ± 0.0076 |
| GGGAAAGTAT | 0.982 ± 0.032 |
| GGGAAATGTT | 1.06 ± 0.016 |
| GGGAAATTAG | 1 ± 0.026 |
| GGGAAATTGT | 0.997 ± 0.017 |
| GGGAACAGCA | 1.027 ± 0.0047 |
| GGGAACGATC | 1.003 ± 0.0083 |
| GGGAACGGCC | 1.054 ± 0.0036 |
| GGGAACGTTT | 0.993 ± 0.011 |
| GGGAAGCATG | 1.02 ± 0.022 |
| GGGAAGCATT | 0.989 ± 0.023 |
| GGGAAGCGCC | 0.9967 ± 0.0032 |
| GGGAAGGCGG | 1.02 ± 0.027 |
| GGGAAGTATG | 1 ± 0.057 |
| GGGAAGTCAA | 1.02 ± 0.032 |
